Measured values reported in patent publication US20200340991A1.
Each block holds one substance with its values, some of them ahead of it.

Target: chimeric TSH receptor (chimeric MC4 receptor) expressed on CHO-MC4 cells (human/rat chimera) (UniProt P16473)
Assay: cell-based or functional assay

Sequence of thyroid blocking monoclonal antibody K1-70 (VH): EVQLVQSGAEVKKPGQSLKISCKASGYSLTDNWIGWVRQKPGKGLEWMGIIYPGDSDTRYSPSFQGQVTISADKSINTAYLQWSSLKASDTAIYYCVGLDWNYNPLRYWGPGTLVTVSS
Sequence of thyroid blocking monoclonal antibody K1-70 (VL): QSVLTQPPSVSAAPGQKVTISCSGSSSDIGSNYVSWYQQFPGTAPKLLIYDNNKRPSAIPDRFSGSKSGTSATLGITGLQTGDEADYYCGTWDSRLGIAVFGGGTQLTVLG

Substance: follicle stimulating hormone (ligand)
% inhibition, TBI assay, FSH 116.3 mIU/ml in reaction buffer (no K1-70): 0%
% inhibition, TBI assay, FSH 232.6 mIU/ml in reaction buffer (no K1-70): 1%
RLU, TBI assay, FSH 116.3 mIU/ml in reaction buffer (no K1-70): 16500 RLU
RLU, TBI assay, FSH 232.6 mIU/ml in reaction buffer (no K1-70): 16300 RLU

Substance: human chorionic gonadotropin (from UniProt P01215 25-116; P0DN86 21-165) (ligand)
% inhibition, TBI assay, hCG 8000 mIU/ml in reaction buffer (no K1-70): -7%
% inhibition, TBI assay, hCG 16000 mIU/ml in reaction buffer (no K1-70): 0%
RLU, TBI assay, hCG 8000 mIU/ml in reaction buffer (no K1-70): 17500 RLU
RLU, TBI assay, hCG 16000 mIU/ml in reaction buffer (no K1-70): 16500 RLU

Substance: thyroid blocking monoclonal antibody K1-70
% inhibition, TBI assay, 2.5 ng K1-70 (TBI positive): 86%
% inhibition, TBI assay, K1-70 0.0025 ng/ml: -6%
% inhibition, TBI assay, K1-70 0.1 ng/ml: 6%
% inhibition, TBI assay, K1-70 0.4 ng/ml: 25%
% inhibition, TBI assay, K1-70 0.6 ng/ml: 27%
% inhibition, TBI assay, K1-70 1 ng/ml: 38%
% inhibition, TBI assay, K1-70 1.5 ng/ml: 55%
% inhibition, TBI assay, K1-70 1.56 ng/ml: 60%
% inhibition, TBI assay, K1-70 5 ng/ml: 102%
% inhibition, TBI assay, K1-70 10 ng/ml: 114%
% inhibition, TBI assay, K1-70 12.5 ng/ml: 104%
% inhibition, TBI assay, K1-70 25 ng/ml: 104%
% inhibition, TBI assay, K1-70 50 ng/ml: 103%
% inhibition, TBI assay, K1-70 100 ng/ml: 101%
% inhibition, TBI assay, K1-70 only 100% (5 ng/ml K1-70): 94%
% inhibition, TBI assay, mixture M22:K1-70 10:90: 77%
% inhibition, TBI assay, mixture M22:K1-70 20:80: 51%
% inhibition, TBI assay, mixture M22:K1-70 30:70: 27%
% inhibition, TBI assay, mixture M22:K1-70 50:50: -37%
% inhibition, TBI assay, mixture M22:K1-70 60:40: -59%
% inhibition, TBI assay, mixture M22:K1-70 90:10: -98%
IC50, TBI bioassay: 1.34 ng/mL
IC50 of TBI assay with CHO-MC4 cells: 1.34 ng/mL
RLU, TBI assay, 2.5 ng K1-70 (TBI positive): 5530 RLU
RLU, TBI assay, 2.5 ng K1-70 with FSH 116.3 mIU/ml: 6100 RLU
RLU, TBI assay, 2.5 ng K1-70 with FSH 232.6 mIU/ml: 5810 RLU
RLU, TBI assay, 2.5 ng K1-70 with LH 20 mIU/ml: 6100 RLU
RLU, TBI assay, 2.5 ng K1-70 with LH 40 mIU/ml: 5770 RLU
RLU, TBI assay, 2.5 ng K1-70 with hCG 8000 mIU/ml: 6000 RLU
RLU, TBI assay, 2.5 ng K1-70 with hCG 16000 mIU/ml: 5950 RLU
RLU, TBI assay, K1-70 0.0025 ng/ml: 16400 RLU
RLU, TBI assay, K1-70 0.05 ng/ml: 15700 RLU
RLU, TBI assay, K1-70 0.1 ng/ml: 13600 RLU
RLU, TBI assay, K1-70 0.2 ng/ml: 14100 RLU
RLU, TBI assay, K1-70 0.4 ng/ml: 12800 RLU
RLU, TBI assay, K1-70 0.6 ng/ml: 12600 RLU
RLU, TBI assay, K1-70 0.8 ng/ml: 12700 RLU
RLU, TBI assay, K1-70 1 ng/ml: 11300 RLU
RLU, TBI assay, K1-70 1.5 ng/ml: 9420 RLU
RLU, TBI assay, K1-70 2 ng/ml: 7940 RLU
RLU, TBI assay, K1-70 2.5 ng/ml: 6620 RLU
RLU, TBI assay, K1-70 5 ng/ml: 4010 RLU
RLU, TBI assay, K1-70 10 ng/ml: 2700 RLU
RUT, TBI assay, K1-70 only 100% (5 ng/ml K1-70): 2420 RUT
RUT, TBI assay, mixture M22:K1-70 10:90: 4000 RUT
RUT, TBI assay, mixture M22:K1-70 20:80: 6470 RUT
RUT, TBI assay, mixture M22:K1-70 30:70: 8650 RUT
RUT, TBI assay, mixture M22:K1-70 40:60: 12300 RUT
RUT, TBI assay, mixture M22:K1-70 50:50: 14600 RUT
RUT, TBI assay, mixture M22:K1-70 60:40: 16700 RUT
RUT, TBI assay, mixture M22:K1-70 70:30: 17600 RUT
RUT, TBI assay, mixture M22:K1-70 80:20: 19600 RUT
RUT, TBI assay, mixture M22:K1-70 90:10: 20400 RUT
sensitivity of TBI bioassay against TRAb assay: > 20 fold

Further lines, results first:

% inhibition, TBI assay, LH 20 mIU/ml in reaction buffer (no K1-70): -5%
% inhibition, TBI assay, LH 40 mIU/ml in reaction buffer (no K1-70): -6%
RLU, TBI assay, LH 20 mIU/ml in reaction buffer (no K1-70): 17300 RLU
RLU, TBI assay, LH 40 mIU/ml in reaction buffer (no K1-70): 17400 RLU
Substance: luteinizing hormone (ligand)

% inhibition, TBI assay, M22 0.02 ng/ml: 2%
% inhibition, TBI assay, M22 0.04 ng/ml: 0%
% inhibition, TBI assay, M22 0.05 ng/ml: -6%
% inhibition, TBI assay, M22 0.06 ng/ml: -11%
% inhibition, TBI assay, M22 0.08 ng/ml: -21%
% inhibition, TBI assay, M22 0.1 ng/ml: -27%
% inhibition, TBI assay, M22 0.15 ng/ml: -32%
% inhibition, TBI assay, M22 0.2 ng/ml: -52%
% inhibition, TBI assay, M22 0.25 ng/ml: -50%
% inhibition, TBI assay, M22 0.3 ng/ml: -65%
% inhibition, TBI assay, M22 0.35 ng/ml: -63%
% inhibition, TBI assay, M22 0.4 ng/ml: -64%
% inhibition, TBI assay, M22 0.6 ng/ml: -66%
% inhibition, TBI assay, M22 0.8 ng/ml: -73%
% inhibition, TBI assay, M22 1.2 ng/ml: -83%
% inhibition, TBI assay, M22 only 100% (0.8 ng/ml M22): -106%
EC50 of stimulatory activity, TBI assay: 0.16 ng/mL
EC50 of stimulatory activity, TSI assay: 0.14 ng/mL
RLU, TBI assay, M22 0.02 ng/ml: 9070 RLU
RLU, TBI assay, M22 0.04 ng/ml: 9260 RLU
RLU, TBI assay, M22 0.05 ng/ml: 9690 RLU
RLU, TBI assay, M22 0.06 ng/ml: 10100 RLU
RLU, TBI assay, M22 0.08 ng/ml: 10900 RLU
RLU, TBI assay, M22 0.1 ng/ml: 11300 RLU
RLU, TBI assay, M22 0.15 ng/ml: 11700 RLU
RLU, TBI assay, M22 0.2 ng/ml: 13300 RLU
RLU, TBI assay, M22 0.25 ng/ml: 13100 RLU
RLU, TBI assay, M22 0.3 ng/ml: 14300 RLU
RLU, TBI assay, M22 0.35 ng/ml: 14100 RLU
RLU, TBI assay, M22 0.4 ng/ml: 14200 RLU
RLU, TBI assay, M22 0.6 ng/ml: 14400 RLU
RLU, TBI assay, M22 0.8 ng/ml: 15000 RLU
RLU, TBI assay, M22 1.2 ng/ml: 15700 RLU
RUT, TBI assay, M22 only 100% (0.8 ng/ml M22): 21200 RUT
SRR % (TBI), M22 0.02 ng/ml: 61%
SRR % (TBI), M22 0.04 ng/ml: 95%
SRR % (TBI), M22 0.05 ng/ml: 111%
SRR % (TBI), M22 0.06 ng/ml: 122%
SRR % (TBI), M22 0.08 ng/ml: 146%
SRR % (TBI), M22 0.1 ng/ml: 180%
SRR % (TBI), M22 0.15 ng/ml: 236%
SRR % (TBI), M22 0.2 ng/ml: 270%
SRR % (TBI), M22 0.25 ng/ml: 283%
SRR % (TBI), M22 0.3 ng/ml: 302%
SRR % (TBI), M22 0.35 ng/ml: 315%
SRR % (TBI), M22 0.4 ng/ml: 332%
SRR % (TBI), M22 0.6 ng/ml: 368%
SRR % (TBI), M22 0.8 ng/ml: 368%
SRR % (TBI), M22 1.2 ng/ml: 365%
Substance: thyroid stimulating monoclonal antibody M22
